Article PMC2858980

Legend:
[1] = molecular target: IL-8(1–72) R26C trapped dimer; experiment: NMR titration
IL-8(1–66) monomer = experiment: NMR titration

Kd [1]: 340 µM
Kd (IL-8(1–66) monomer): 10 µM
B1: CXCR1 N-domain 24-mer (peptide)
peptide: LWTWFEDEFANATGMPPVEKDYSP
